Assay results published in US8158585B2, “Cross-β structure comprising amyloid-binding proteins and methods for detection of the cross-β structure, for modulating cross-β structures fiber formation and modulating cross-β structure-mediated toxicity” (CrossBeta Biosciences B.V., priority 2002, dated 2012).

Tests used:
Aβ (1-40) = Aβ (1-40) (Homo sapiens, UniProt P05067); assay: ELISA: binding of tPA (f.l. tPA, K2-P tPA) to Aβ (1-40), with Congo red competition; design: Peptide Aβ (1-40), containing amino acids as present in the described human Alzheimer peptide; purchased Pepscan, Inc. or peptide synthesis facility of the Netherlands Cancer Institute; host or cells: chemical synthesis; details: 40 nM tPA, 0-100 μM Congo red
Protocol: (§1) Binding of tPA to albumin-g6p (four-week and 23-week incubations), albumin-glyceraldehyde, control albumin, human Hb-g6p (ten-week incubation), Hb control, or to Aβ (1-40) was tested using an enzyme-linked immunosorbent assay (ELISA) set-up. Albumin-g6p and control albumin (2.5 μg ml^−1 in coat buffer, 50 mM Na2CO3/NaHCO3 pH 9.6, 0.02% m/v NaN3, 50 μl/well) were immobilized for one hour at room temperature in 96-well protein Immobilizer plates (Exiqon, Vedbaek, Denmark). Aβ (1-40) (10 μg ml^−1 in coat buffer) was immobilized for 75 minutes at room temperature in a 96-well peptide Immobilizer plate (Exiqon, Vedbaek, Denmark). Control wells were incubated with coat buffer only. After a wash step with 200 μl of PBS/0.1% v/v Tween 20, plates were blocked with 300 μl of PBS/1% v/v Tween 20, for two hours at room temperature while shaking. All subsequent incubations were performed in PBS/0.1% v/v Tween 20 for one hour at room temperature while shaking, with volumes of 50 μl per well. After each incubation, wells were washed five times with 200 μl of PBS/0.1% v/v Tween 20. Increasing amounts of f.l. tPA or K2-P tPA was added in triplicate to coated wells and to control wells. […] Absorbance was read at 490 nm on a Vmax kinetic microplate reader (Molecular Devices, Sunnyvale, Calif., USA). […]

[1] = biological target: T1, albumin-g6p (albumin-AGE) (Bos taurus, UniProt P02769); assay: ELISA: binding of tPA (f.l. tPA, K2-P tPA) to albumin-g6p, with Congo red competition; design: species or system bovine; details: 20 nM tPA, increasing Congo red
T1 construct: Bovine serum albumin (BSA) fraction V pH 7.0; host or cells: bovine serum, fraction V
Protocol: as §1

Aβ = biological target: T2, Aβ (Homo sapiens, UniProt P05067); assay: Amyloid ELISA with tPA F-EGF-GST: Aβ; type: binding
T2 construct: Peptide Aβ (1-40), containing amino acids as present in the described human Alzheimer peptide; purchased Pepscan, Inc. or peptide synthesis facility of the Netherlands Cancer Institute; host or cells: chemical synthesis
Protocol: (§2) In order to define the affinity of the purified tPA F-EGF-GST recombinant protein, ELISAs were performed with immobilized amyloid (poly)peptides and non-amyloid control ΔmIAPP. Twenty-five μg ml^−1 of Aβ, FP13, IAPP or ΔmIAPP was immobilized on Exiqon peptide immobilizer plates. A concentration series of tPA F-EGF-GST in the presence of excess εACA was added to the wells and binding was assayed using anti-GST antibody Z-5. As a control, GST (Sigma-Aldrich, St. Louis, Mo., USA, catalogue #G-5663) was used at the same concentrations.

[2] = biological target: T3, fibrin fragment α148-160 FP13 (Homo sapiens, UniProt P02671); assay: Amyloid ELISA with tPA F-EGF-GST: FP13; type: binding
T3 construct: purchased Pepscan, Inc. or peptide synthesis facility of the Netherlands Cancer Institute; host or cells: chemical synthesis
Protocol: as §2

Aβ fibrils = biological target: T4, Aβ fibrils (Homo sapiens, UniProt P05067); assay: Amyloid pull-down with insoluble Aβ fibers; type: binding; details: conditioned BHK medium
T4 construct: Peptide Aβ (1-40), containing amino acids as present in the described human Alzheimer peptide; purchased Pepscan, Inc. (The Netherlands) or peptide synthesis facility at the Netherlands Cancer Institute; host or cells: synthetic peptide

[3] = system: amyloid deposits in human brain inflicted by AD; assay: Immunohistochemistry: binding of tPA F-EGF to human AD brain; details: 7 nM construct; Congo red fluorescence to locate amyloid
Protocol: Paraffin brain sections of a human inflicted with AD was a kind gift of Prof. Slootweg (Dept. of Pathology, UMC Utrecht). Sections were deparaffinized in a series of xylene-ethanol. Endogenous peroxidases were blocked with methanol/1.5% H2O2 for 15 minutes. After rinsing in H2O, sections were incubated with undiluted formic acid for ten minutes, followed by incubation in PBS for five minutes. Sections were blocked in 10% HPS in PBS for 15 minutes. Sections were exposed for two hours with 7 nM of tPA F-EGF-GST or GST in PBS/0.3% BSA. After three wash steps with PBS, sections were overlayed with 200 ng ml^−1 anti-GST antibody Z-5, for one hour. After washing, ready-to-use goat anti-rabbit Powervision (Immunologic, Duiven, The Netherlands, catalogue #DPVR-55AP) was applied and incubated for one hour. After washing, sections were stained for ten minutes with 3,3′-diamino benzidine (Sigma-Aldrich, St Louis, Mo., USA, catalogue #D-5905), followed by hematoxylin staining for ten seconds. After washing with H2O, sections were incubated with Congo red according to the manufacturer's recommendations (Sigma Diagnostics, St Louis, Mo., USA). […] Analysis of sections was performed on a Leica DMIRBE fluorescence microscope (Rijswijk, The Netherlands). Fluorescence of Congo red was analyzed using an excitation wavelength of 596 nm and an emission wavelength of 620 nm.

IAPP = biological target: T5, IAPP (Homo sapiens, UniProt P10997); assay: Amyloid ELISA with tPA F-EGF-GST: IAPP; type: binding
T5 construct: purchased Pepscan, Inc. (The Netherlands) or peptide synthesis facility at the Netherlands Cancer Institute; host or cells: synthetic peptide
T5 sequence (P10997 34-70 limits assumed): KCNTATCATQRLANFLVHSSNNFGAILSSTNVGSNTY
Protocol: as §2

IAPP fibrils = biological target: T6, IAPP fibrils (Homo sapiens, UniProt P10997); assay: Amyloid pull-down with IAPP fibrils; type: binding; details: conditioned BHK medium
T6 construct: purchased Pepscan, Inc. (The Netherlands) or peptide synthesis facility at the Netherlands Cancer Institute; host or cells: synthetic peptide
T6 sequence (P10997 34-70 limits assumed): T5 sequence (P10997 34-70 limits assumed)
Protocol: Conditioned medium of BHK cells expressing GST-tagged tPA F, F-EGF, EGF, K1, F-EGF-K1, FXII F, HGFa F, Fn F4, Fn F5, Fn F4-5 and GST was used for amyloid binding assays. At first, constructs were adjusted to approximately equal concentration using Western blots. Qualitative binding of the recombinant fragments were evaluated using a “pull-down” assay. To this end, the recombinantly made fragments were incubated with either Aβ or IAPP fibrils. Since these peptides form insoluble fibers, unbound proteins can be easily removed from the fibers following centrifugation. The pellets containing the bound fragments were subsequently washed several times. Bound fragments were solubilized in SDS-sample buffer and analyzed by PAGE, as were unbound proteins in the supernatant fraction and starting material. The gels were analyzed using immunoblotting analysis with the anti-GST antibody Z-5.

T4 sequence (P05067 672-711): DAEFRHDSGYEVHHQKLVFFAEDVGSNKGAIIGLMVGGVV
Chain of Aβ (1-40) (P05067 672-711): as above
T2 sequence (P05067 672-711): as above
T1 sequence (P02769 25-607): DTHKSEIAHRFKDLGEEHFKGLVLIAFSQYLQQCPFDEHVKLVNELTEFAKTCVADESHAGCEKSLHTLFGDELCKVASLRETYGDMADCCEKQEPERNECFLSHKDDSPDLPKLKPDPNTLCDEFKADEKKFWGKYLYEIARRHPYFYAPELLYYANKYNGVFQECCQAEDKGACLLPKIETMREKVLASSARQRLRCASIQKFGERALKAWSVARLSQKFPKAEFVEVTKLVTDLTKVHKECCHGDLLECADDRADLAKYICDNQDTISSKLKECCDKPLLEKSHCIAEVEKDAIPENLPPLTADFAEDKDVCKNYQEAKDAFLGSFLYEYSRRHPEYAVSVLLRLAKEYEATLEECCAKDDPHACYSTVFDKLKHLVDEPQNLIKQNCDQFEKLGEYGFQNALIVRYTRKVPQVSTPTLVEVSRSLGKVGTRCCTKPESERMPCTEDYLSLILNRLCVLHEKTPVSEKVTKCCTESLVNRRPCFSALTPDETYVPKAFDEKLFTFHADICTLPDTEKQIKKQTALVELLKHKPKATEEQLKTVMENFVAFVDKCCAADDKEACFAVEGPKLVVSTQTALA

For `Nc1c(/N=N/c2ccc(-c3ccc(/N=N/c4cc(S(=O)(=O)O)c5ccccc5c4N)cc3)cc2)cc(S(=O)(=O)O)c2ccccc12` [Congo red], the “competition of tPA binding to Aβ” value (Aβ (1-40)) was “competed” and the “competition of tPA binding to albumin-g6p” value [1] was “competed”.

With “GST: glutathion-S-transferase tag alone, negative control” the “binding to Aβ” value (Aβ) was “some binding”, the “binding to FP13” value [2] was “did not bind” and the “binding to Aβ fibers (pull-down, Western blot)” value (Aβ fibrils) was “remain in the supernatant”. The “binding to amyloid deposits in AD brain sections” value [3] was “did not show specific binding” and the “binding to IAPP” value (IAPP) was “did not bind”.

For “HGFa F-GST: finger domain of human hepatocyte growth factor activator with GST tag”, the “binding to Aβ fibers (pull-down, Western blot)” value (Aβ fibrils) was “specifically bind” and the “binding to IAPP fibrils (pull-down, not shown)” value (IAPP fibrils) was “specifically bind”.
